Data from patent US20200055939A1 (Genentech, published 2020).
Substitutions are numbered along the chain they refer to. Several values for one entry are separate records, joined by “and”; a condition that tells them apart may be missing. Equal values may be shown once. Read-outs that look alike come from different tables or passages of the source. Blank lines part the entries; values can stand above or below the binder they belong to.

Experiments:
[1] = biological target: T1, MICA008.His (human MICA*008 alpha 3 domain, His tagged) (human); assay: ELISA, coated antigen
T1 construct: Also used for FPOP (expressed in CHO); also called huMICA*008 alpha 3-his; MICA*008 a3
T1 chain: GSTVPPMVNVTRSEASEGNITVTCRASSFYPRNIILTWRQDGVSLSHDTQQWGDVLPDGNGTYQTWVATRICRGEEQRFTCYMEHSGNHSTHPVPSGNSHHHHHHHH

[2] = biological target: T2, MICA.008.a3.R202-S297.R202N mIgG2a.Glyco11 (human; mouse, UniProt Q29983 203-297, engineered N-linked glycosylation site R202N); assay: ELISA, coated variant;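 note: ELISA with plates coated at 2 ug/ml with MICA*008 alpha 3 glycosylation variants as murine IgG2a Fc fusions, antibody binding detected by HRP anti-human IgG Fc and TMB absorbance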
T2 construct: not shown: murine IgG2a Fc
T2 chain: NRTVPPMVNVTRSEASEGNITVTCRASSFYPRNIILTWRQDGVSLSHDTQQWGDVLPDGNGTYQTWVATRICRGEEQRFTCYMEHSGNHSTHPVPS

[3] = biological target: T3, MICA.008.a3.T204-S297.E215N.mIgG2a.Glyco12 (human; mouse, UniProt Q29983 204-297, engineered N-linked glycosylation site E215N); assay: ELISA, coated variant;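 note: ELISA with plates coated at 2 ug/ml with MICA*008 alpha 3 glycosylation variants as murine IgG2a Fc fusions, antibody binding detected by HRP anti-human IgG Fc and TMB absorbance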
T3 construct: not shown: murine IgG2a Fc
T3 chain: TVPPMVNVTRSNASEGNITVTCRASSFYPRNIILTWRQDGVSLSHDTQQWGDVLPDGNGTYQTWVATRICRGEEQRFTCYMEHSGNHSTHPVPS

[4] = biological target: T4, MICA.008.a3.T204-S297.I236T.mIgG2a.Glyco13 (human; mouse, UniProt Q29983 204-297, engineered N-linked glycosylation site created by I236T); assay: ELISA, coated variant;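 note: ELISA with plates coated at 2 ug/ml with MICA*008 alpha 3 glycosylation variants as murine IgG2a Fc fusions, antibody binding detected by HRP anti-human IgG Fc and TMB absorbance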
T4 construct: not shown: murine IgG2a Fc
T4 chain: T3 chain with N12E, I33T

[5] = biological target: T5, MICA.008.a3.T204-S297.G243N.mIgG2a.Glyco14 (human; mouse, UniProt Q29983 204-297, engineered N-linked glycosylation site G243N); assay: ELISA, coated variant;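 note: ELISA with plates coated at 2 ug/ml with MICA*008 alpha 3 glycosylation variants as murine IgG2a Fc fusions, antibody binding detected by HRP anti-human IgG Fc and TMB absorbance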
T5 construct: not shown: murine IgG2a Fc
T5 chain: T3 chain with N12E, G40N

[6] = biological target: T6, MICA.008.a3.T204-S297.C-terminal insert of N298.G299.S300.mIgG2a.Glyco17 (human; mouse, UniProt Q29983 204-297, engineered N-linked glycosylation site at inserted N298); assay: ELISA, coated variant
T6 construct: not shown: murine IgG2a Fc
T6 chain: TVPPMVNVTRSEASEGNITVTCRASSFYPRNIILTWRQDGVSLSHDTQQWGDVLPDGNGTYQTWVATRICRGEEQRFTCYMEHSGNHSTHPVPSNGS

[7] = biological target: T7, MICA002.His (human MICA*002 alpha 3 domain, His tagged) (human); assay: SPR, antibody captured;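 note: SPR with antibody held by surface-bound anti-Fc while His-tagged alpha three domains flow over, Kd derived by fitting a one-to-one binding model to sensograms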
T7 construct: also called huMICA*002 alpha 3-his
T7 chain: T1 chain with S28G, R32W, I35T, T37S, R73Q

[8] = biological target: T8, MICA004.His (human MICA*004 alpha 3 domain, His tagged) (human); assay: SPR, antibody captured;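 note: SPR with antibody held by surface-bound anti-Fc while His-tagged alpha three domains flow over, Kd derived by fitting a one-to-one binding model to sensograms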
T8 construct: also called huMICA*004 alpha 3-his
T8 chain: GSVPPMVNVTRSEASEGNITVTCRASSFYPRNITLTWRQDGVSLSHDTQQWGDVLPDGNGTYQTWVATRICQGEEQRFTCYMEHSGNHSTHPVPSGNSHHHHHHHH

[9] = biological target: T9, MICB005.His (human MICB*005 alpha 3 domain, His tagged) (human); assay: SPR, antibody captured;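 note: SPR with antibody held by surface-bound anti-Fc while His-tagged alpha three domains flow over, Kd derived by fitting a one-to-one binding model to sensograms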
T9 construct: also called huMICB*005 alpha 3-his
T9 chain: T1 chain with R12C, A15V, I35T, D48N, C72R, R73Q, S90G

[10] = biological target: T10, MICA*008 on MEL-JUSO cells (human, UniProt Q29983 24-317); assay: cell-based or functional assay
T10 chain: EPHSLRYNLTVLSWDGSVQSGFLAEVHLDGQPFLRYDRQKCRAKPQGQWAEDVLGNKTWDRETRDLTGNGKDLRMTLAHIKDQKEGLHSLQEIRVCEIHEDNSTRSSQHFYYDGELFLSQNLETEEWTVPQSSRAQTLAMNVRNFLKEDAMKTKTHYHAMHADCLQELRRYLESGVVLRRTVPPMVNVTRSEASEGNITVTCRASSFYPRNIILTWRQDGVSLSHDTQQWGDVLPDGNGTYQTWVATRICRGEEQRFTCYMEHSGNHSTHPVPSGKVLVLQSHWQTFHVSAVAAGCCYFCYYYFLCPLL

[11] = biological target: T11, MICA*004 on HCC1534 cells (human, UniProt Q29983 24-383); assay: cell-based or functional assay
[12] = biological target: T10, MICA*008 on MEL-JUSO cells; assay: cell-based or functional assay
[13] = biological target: T11, MICA*004 on HCC1534 cells; assay: cell-based or functional assay; remark: listed apart in the source
[14] = biological target: T12, MICB*005 on HCC1534 cells (human, UniProt Q29980 23-383); assay: cell-based or functional assay
T12 sequence (looked up): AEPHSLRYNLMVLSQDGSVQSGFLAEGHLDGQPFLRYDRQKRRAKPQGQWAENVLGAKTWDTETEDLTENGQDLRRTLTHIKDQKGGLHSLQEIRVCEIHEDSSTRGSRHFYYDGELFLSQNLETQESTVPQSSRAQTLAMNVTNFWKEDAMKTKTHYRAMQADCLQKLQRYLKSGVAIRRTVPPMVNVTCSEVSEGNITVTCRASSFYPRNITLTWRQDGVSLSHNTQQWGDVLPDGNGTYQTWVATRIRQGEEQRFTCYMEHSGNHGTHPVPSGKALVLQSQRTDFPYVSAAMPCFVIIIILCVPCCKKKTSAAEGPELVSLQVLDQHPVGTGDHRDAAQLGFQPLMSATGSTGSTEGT

[15] = biological target: T13, MILL1-MICA chimera.murine IgG2a Fc fusion (mouse MILL1 with grafted human MICA*008 …); assay: ELISA, coated chimera
T13 construct: MICA*008 residues around NGTYQT on the 'back' and in the beta2 microglobulin interface grafted onto murine MILL1; also called MILL1-MICA*008 chimera

[16] = biological target: T14, MICA.008.a3.T204-S297.H248N.mIgG2a.Glyco15 (human; mouse, UniProt Q29983 204-297, engineered N-linked glycosylation site H248N); assay: ELISA, coated variant
T14 construct: not shown: murine IgG2a Fc
T14 chain: T3 chain with N12E, H45N

[17] = biological target: T1, MICA008.His (human MICA*008 alpha 3 …); assay: SPR, antibody captured;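 note: SPR with antibody held by surface-bound anti-Fc while His-tagged alpha three domains flow over, Kd derived by fitting a one-to-one binding model to sensograms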
[18] = biological target: T12, MICB*005 on HCC1534 cells; assay: cell-based or functional assay; remark: listed apart in the source
[19] = biological target: T10, MICA*008 on MEL-JUSO cells; assay: cell-based or functional assay
[20] = biological target: T11, MICA*004 on HCC1534 cells; assay: cell-based or functional assay; remark: listed apart in the source
[21] = biological target: T12, MICB*005 on HCC1534 cells; assay: cell-based or functional assay; remark: listed apart in the source
[22] = biological target: MICA*002 on cells (PANC-1; B16-MICA002) (human, UniProt Q29983 24-383); assay: cell-based or functional assay
[23] = biological target: T15, MICA.008.a3.T204-S297.E215N.G243N.H248N.R279N.C-terminal insert of N298.G299.S300.mIgG2a.Glyco4 … (human; mouse, engineered N-linked glycosylation sites E215N, G243N, H248N, R279N and inserted N298); assay: ELISA, coated variant
T15 construct: not shown: murine IgG2a Fc

[24] = biological target: T16, MICA.008.a3.T204-S297.R279N.mIgG2a.Glyco16 (human; mouse, UniProt Q29983 204-297, engineered N-linked glycosylation site R279N); assay: ELISA, coated variant
T16 construct: not shown: murine IgG2a Fc
T16 chain: T3 chain with N12E, R76N

B1: 7A3.1.9 (antibody, V domains shown)
VH: QVQLKESGPGLVAPSQSLSITCTVSGFALTGSGVNWVRQPPGKGLEWLGMIWGDGNTDYNSALKSRLSISKDNSKSQIFLKMNSLQTDDTARYYCARGAHYGKRWYFDVWGAGTTVTVSS
VL: DIQMTQTTSSLSASLGDRVTISCSASQGINNYLNWYQQKPDGTVKLLIYYTSSLPSGVPSRFSGSGSGTDYSLTISNLEPEDIATYYCQQYSKLPPTFGGGTKVEIK
notes: Mouse hybridoma antibody; constant regions differ by assay
binding result [1]: binds | binding result [2]: binds | binding result [3]: binds | binding result [4]: binds | binding result [5]: binds | binding result [6]: binds | Kd [7]: 22 nM | Kd [8]: 8.7 nM | Kd [9]: 16 nM | % max inhibition of shedding [10]: < 10% | % max inhibition of shedding [11]: 50% | EC50 of shedding inhibition [11]: 0.411 µg/mL

B4: 6E1.1.12 (antibody, V domains shown)
VH: QGQMQQSGAELVKPGASVKLSCKTSGFTFSDNYISWLKQKPGQSLEWIAWIYAGTGGSSYNQKFRDKAQLTVDTSSRTAYMQLSSLTTEDSAIYYCARHDYYGTSGAWFAYWGRGTLVTVSA
VL: DVLMTQTPLSLPVSLGDQASISCRSSQHIVHSNENTYLEWYLQKPGQSPKLLIYKVSNRFSGVPDRFSGSGSGTDFTLKISRVEAEDLGVYYCFQGSHVPWTFGGGTKVEIK
notes: as for B1
maximum inhibition of shedding [13]: ~50% | binding result [15]: binds | binding result [23]: binds | binding result [2]: binds | binding result [3]: binds | Kd [17]: 6.8 nM | Kd [7]: 2.8 nM | Kd [8]: 8.7 nM | Kd [9]: 10 nM | EC50 of shedding inhibition [11]: 0.265 µg/mL and 0.157 µg/mL | EC50 of shedding inhibition [18]: 0.0791 µg/mL | EC50 of shedding inhibition [21]: 0.0724 µg/mL | Max % Inhibition of shedding [21]: 58%

The remaining binders from weak to strong by Kd [7], led by results:

binding result [1]: binds | binding result [2]: binds | binding result [3]: binds | binding result [4]: binds | binding result [5]: binds | binding result [6]: binds | Kd [7]: 24 nM | Kd [8]: 37 nM | Kd [9]: 18 nM | % max inhibition of shedding [10]: 20% | % max inhibition of shedding [11]: 46% | EC50 of shedding inhibition [11]: 0.681 µg/mL
B2: 1E6.1.3 (antibody, V domains shown)
VH: B1 VH with A28S, K43Q, I78V
VL: B1 VL with S9F, K39R, S53T, T85S
notes: as for B1

binding result [15]: binds | binding result [23]: binds | binding result [2]: binds | binding result [3]: binds | binding result [4]: binds | binding result [5]: binds | binding result [16]: binds | binding result [24]: binds | binding result [6]: binds | Kd [17]: 1.8 nM | Kd [7]: 0.66 nM | Kd [8]: 1.96 nM | Kd [9]: 2.7 nM | EC50 of shedding inhibition [10]: 0.195 µg/mL and 0.112 µg/mL | EC50 of shedding inhibition [11]: 0.107 µg/mL and 0.23 µg/mL | % max inhibition of shedding [18]: 60% | EC50 of shedding inhibition [18]: 0.107 µg/mL
B5: 2E5.2.3 (antibody, V domains shown)
VH: B4 VH with S58T, R65T, D66A, R77S, L83F, R114Q
VL: B4 VL with I21L, H28N, S32I, E34G
notes: as for B1

maximum inhibition of shedding [12]: ~40% | maximum inhibition of shedding [13]: ~60% | maximum inhibition of shedding [14]: 75% | binding result [15]: binds | binding result [2]: binds | binding result [3]: binds | binding result [4]: binds | binding result [16]: binds | binding result [6]: binds | Kd [17]: 0.94 nM | Kd [7]: 0.5 nM | Kd [8]: 1.55 nM | Kd [9]: 0.97 nM | % max inhibition of shedding [10]: 47% | EC50 of shedding inhibition [10]: 0.489 µg/mL | % max inhibition of shedding [11]: 66% | EC50 of shedding inhibition [11]: 0.166 µg/mL | % max inhibition of shedding [18]: 79% | EC50 of shedding inhibition [18]: 0.053 µg/mL | EC50 of shedding inhibition [19]: 0.794 µg/mL | Max % Inhibition of shedding [19]: 50% | EC50 of shedding inhibition [20]: 0.599 µg/mL | Max % Inhibition of shedding [20]: 56% | EC50 of shedding inhibition [21]: 0.0349 µg/mL | Max % Inhibition of shedding [21]: 76% | EC50 of shedding inhibition [22]: 0.418 µg/mL | Max % Inhibition of shedding [22]: 66%
B3: 13A9 (antibody, V domains shown)
VH: QVQLQQSGAELVRPGTSVKVSCKASGYAFTNYLIEWVKQRPGQGLEWIGAINPGSGATNYNEKFKDKARLTADKSSNTAYLQFSSLTSDDSAVYFCARFLGNYFDNWGQGATLTVSS
VL: DIQMTQSPASLSASVGETVTITCRASGNIHSYLAWYQQKQGKSPQLLVYYAETLADGVPSRFSGRGSGTQYSLKINSLQPEDFGSYFCQQFWTTPYTFGGGTKVEIK
notes: Mouse variable domains; constant regions differ by assay
